Article PMC9060507 (Proceedings of the National Academy of Sciences of the …, 2022)

Biological target: T1, Methylosinus trichosporium OB3b MbnBC enzyme complex (wild type) (Methylosinus trichosporium OB3b, UniProt A0A2D2D5M1;A0A2D2CY73)
T1 sequence 1: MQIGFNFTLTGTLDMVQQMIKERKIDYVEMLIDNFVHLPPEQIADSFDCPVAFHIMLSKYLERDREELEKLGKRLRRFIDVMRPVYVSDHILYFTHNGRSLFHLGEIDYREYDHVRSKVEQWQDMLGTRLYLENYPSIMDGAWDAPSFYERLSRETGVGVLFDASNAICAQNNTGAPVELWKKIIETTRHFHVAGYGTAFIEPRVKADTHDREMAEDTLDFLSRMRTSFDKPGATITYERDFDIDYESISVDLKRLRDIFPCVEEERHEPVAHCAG
T1 sequence 2: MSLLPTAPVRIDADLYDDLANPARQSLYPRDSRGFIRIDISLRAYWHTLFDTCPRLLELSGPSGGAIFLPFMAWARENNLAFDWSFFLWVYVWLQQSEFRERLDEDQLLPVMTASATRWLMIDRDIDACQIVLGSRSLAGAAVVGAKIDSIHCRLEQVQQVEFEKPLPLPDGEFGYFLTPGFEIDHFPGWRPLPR
Experiment: EPR spectroscopy

Question: Does MTVKIAQKKVLPVIGRAAALCGSCYPCSCM [MbnA precursor peptide from Ms. trichosporium OB3b] bind?
Answer: binds
